# Assay results reported in publication doi:10.1101/2025.01.05.631353 (bioRxiv, 2025).
# Square brackets hold non-standard residues; d marks the D form. Ends that are not written are not given here. pT = C[C@@H](OP(=O)(O)O)[C@H](N)C(=O)O; pS = N[C@@H](COP(=O)(O)O)C(=O)O
# Legend:
# β-arrestin2 R166A = β-arrestin2 R166A (UniProt P29067 1-410, R166A); assay: ITC
# β-arrestin2 R394A = β-arrestin2 R394A (UniProt P29067 1-410, R394A); assay: ITC
# Sequence of β-arrestin2 R394A (P29067 whole entry R394A): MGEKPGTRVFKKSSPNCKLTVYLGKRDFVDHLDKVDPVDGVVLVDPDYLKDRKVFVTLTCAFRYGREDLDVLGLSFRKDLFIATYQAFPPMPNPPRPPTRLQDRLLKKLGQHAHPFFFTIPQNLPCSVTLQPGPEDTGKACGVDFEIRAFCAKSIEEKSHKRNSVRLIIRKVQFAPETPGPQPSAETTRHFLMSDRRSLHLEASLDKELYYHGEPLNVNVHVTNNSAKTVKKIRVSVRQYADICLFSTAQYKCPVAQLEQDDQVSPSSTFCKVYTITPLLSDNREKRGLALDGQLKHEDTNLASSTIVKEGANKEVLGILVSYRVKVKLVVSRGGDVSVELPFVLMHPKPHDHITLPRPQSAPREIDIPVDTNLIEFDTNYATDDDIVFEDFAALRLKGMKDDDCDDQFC
# Sequence of β-arrestin2 R166A (P29067 whole entry R166A): as the sequence (P29067 whole entry R394A) above, with R166A, A394R counted along it
binder,measurement,setting,value
"ASRV[pS]E[pT]EY[pS]ALEQ [C7pp2, phosphopeptide derived from the carboxyl terminus of CXCR7 (residues 346-359)]",Kd,β-arrestin2 R166A,16.4 µM
same,Kd,β-arrestin2 R394A,1.1 µM
